In the RNAGym collection of RNA variant scans (doi:10.1073/pnas.2313332121):

B1: TPR t1 (parent)
chain: GACCAAUCUGCCCUCAGAGCUCGAGAACAUCUUCGGAUGCAGAGGAGGCAGGCUUCGGUGGCGCGAUAGCGCCAACGUCCUCAACCUCCAAUGCAUCCCACCACAUGAUGAUGCCUGAAGAGCCUUGGUUUUUUG

Variants of: B1
Experiment: polymerase ribozyme fitness, log enrichment relative to wild type (log ratio); higher = more active; in vitro selection for triplet polymerase activity
In short: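 Genotype fitness is the logarithm of its enrichment divided by wild-type enrichment, using inverse-variance-weighted averages of replicates. That logarithm is base 2. Enrichment was measured by Illumina sequencing of input and output libraries from one triplicate in vitro selection round, with frozen incubation at −7 °C, on PCR-built, transcribed mutant libraries of each subunit of a heterodimeric triplet polymerase ribozyme, retaining genotypes with ≥10 input reads and ≥1 read per output.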

Point of comparison: GACCAAUCUGCCCUCAGAGCUCGAGAACAUCUUCGGAUGCAGAGGAGGCCGGCUUCGGUGCCGCGAUAGCGCCAACGUCCUCAACCUCCAAUGCAUCCCACCACAUGAAGAUGCCUGAAGAGCCUUGGUUUUUUG [A50C G61C U109A], “polymerase ribozyme fitness (log ratio)” value -6.96. Against it:
- GACCAAUCUGCCCUCAGAGCUCGAGAACAUCUUCGGAUGCAGAGGAGGCCGGCUUCGGUGGCGCGAUAGCGCCAACGUCCUCAACCUCCAAUGCAUCCCACCACAUGAUGAUGCCUGAAGAGCCUUGGAUUUUUG [A50C U129A] — higher, -1.83
- GACCAAUCUGCCCUCAGAGCUCGAGAACAUCUUCGGAUGCAGAGGAGGCCGGCUUCGGUGGCGCGAUAGCGCCAACGUCCUCAACCUCCAAUGCAUCCCACCAUAUGAUAAUGCCUGUAGAGCCUUGGUUUUUUG [A50C C104U G110A A118U] — higher, -0.437
- GACCAAUCUGCCCUCAGAGCUCGAGAACAUCUUCGGAUGCAGAGGAGGCCGGCUUCGGUGGCGCGAUAGCGCCAACGUCCCCAACCUCCAAUGCAUCCCACCACAUGAUGAUGCCUGAAGAGCCUUGGUUUUUUG [A50C U81C] — higher, 0.175
- GACCAAUCUGCCCUCAGAGCUCGAGAACAUCUUCGGAUGCAGAGGAGGCCGGCUUCGGUGGCGCGAUAGCGCCAACUUCCUCAACCUCCAAUGCAUCCCACCACAUGAUGAUGCGUGAAGAGCCUUGGUUUUUUG [A50C G77U C115G] — higher, -1.98
- GACCAAUCUGCCCUCAGAGCUCGAGAACAUCUUCGGAUGCAGAGGAGGCUGGCUUCGGUGGCGCGAUAGCGCCGACGUCCUCAACCUCCAAUGCAUCCCACCACAUGAUGAUGCCUGAAGAGCCUUGGUUUUUUG [A50U A74G] — higher, -1.27
- GACCAAUCUGCCCUCAGAGCUCGAGAACAUCUUCGGAUGCAGAGGAGGCUGGCUUCGGUGGCGCGAUAGCGCCAACGUCCUCAGCCUCCAAUGCAUCCCACCACAUGAUGAUGCCUGAAGAGCCUUGGUUUUUUG [A50U A84G] — higher, -3.04
- GACCAAUCUGCCCUCAGAGCUCGAGAACAUCUUCGGAUGCAGAGGAGGCGGGCUUCGGUGGCGCGAUAGCGCUAACGUCCUCAACCUUCAAUGCAUCCCACCACAUGAUGAUGCCUGAAGAGCAUUGGUUUUUUG [A50G C73U C88U C124A] — higher, 1.42
- GACCAAUCUGCCCUCAGAGCUCGAGAACAUCUUCGGAUGCAGAGGAGGCGGGCUUCGGUGGCGCGAUAGCGCCAACGUACUCAACCUCCAAUGCACCCCACCACAUGAUGAUGCCUGAAGAGCCUUGGUUUUUUG [A50G C79A U96C] — higher, -2.32
- GACCAAUCUGCCCUCAGAGCUCGAGAACAUCUUCGGAUGCAGAGGAGGCCGGCUUCGGUGGCGCGAUAGCUCCAACGUCCUCAACCUCCAAUGCAUCCCAGCACAUGAUGAUGCCUGAAGAGCCUUGGUUUUUUG [A50C G71U C101G] — higher, -2.67
- GACCAAUCUGCCCUCAGAGCUCGAGAACAUCUUCGGAUGCAGAGGAGGCGGGGUUCGGUGACGCGAUAGCGCCAACGUCCUCAACCUCCAAUGCAUCCCACCACAUGAUGAUGCCAAAAGAGCCUUGGUUUUUUG [A50G C53G G61A U116A G117A] — higher, -3.29
- GACCAAUCUGCCCUCAGAGCUCGAGAACAUCUUCGGAUGCAGAGGAGGCGGGCUUCGGUGGCACGAUAGCGCCAACGUCCUCAACCUCCAAUGCAUCCCACCACAUGAUGAUGCCUGAAGAGCCUUGGUUUUUUG [A50G G63A] — higher, -0.747
- GACCAAUCUGCCCUCAGAGCUCGAGAACAUCUUCGGAUGCAGAGGAGGCCGGCUUCGGUCGCGAGAUAGCGCCAACGUCCUCAACCUCCAAUGCAUCCCACCGAAUGAUGAUGCCUGAAGAGCUUUGGUUUUUUG [A50C G60C C64A A103G C104A C124U] — higher, -5.11
- GACCAAUCUGCCCUCAGAGCUCGAGAACAUCUUCGGAUGCAGAGGAGGCCGGCUUCGGUGGCGCGAUAGCGCCAACGUCCUCAACCUCCAAUGCAUCCCACCACAUGAUAAUGCCUGAAGAGCCUUGGUUUUUUG [A50C G110A] — higher, -2.37
- GACCAAUCUGCCCUCAGAGCUCGAGAACAUCUUCGGAUGCAGAGGAGGCCGGCUUCGGUUGCGCGAUAGCGCCAACGUCCUCAACCUCCAAUGCAUACCACCACAUGAUGAUGCCUGAAGAGCCUUGGUUUUUUG [A50C G60U C97A] — higher, -5.38
- GACCAAUCUGCCCUCAGAGCUCGAGAACAUCUUCGGAUGCAGAGGAGGCGGGCUUCGGUGGCGCGAUAGCGCCAACGGCCUCAACCUCCAAUGCAUCCCACCACAUGAUGAUGCCUGAAGAGCCUUGGUUUUUUG [A50G U78G] — higher, 0.0351
- GACCAAUCUGCCCUCAGAGCUCGAGAACAUCUUCGGAUGCAGAGGAGGCCGGCUUCGGUGGCGCGAUAGCGCCAACGUCCUCAACCUCCAAUUCAUCCCACCACAUGAUGAGGCCUGAAGAGCCUUGGUUUUUUG [A50C G93U U112G] — higher, -2.03
- GACCAAUCUGCCCUCAGAGCUCGAGAACAUCUUCGGAUGCAGAGGAGGCCGGCUUCGGCGGCGCGAUAGCGCCAACGUCCUCAACUUCCAAUGCAUCCCACCACAUGAUGAUGCCUGAAGAGCCUUGGUUUUUUG [A50C U59C C86U] — higher, -0.825
- GACCAAUCUGCCCUCAGAGCUCGAGAACAUCUUCGGAUGCAGAGGAGGCCGGCUUCGGUGGCGCGAUAGCGCCAACGUCCUCAACCUCCAAUGCAUCCCACCACAUGAUGAUGCCUGAAGAGCCUUGGUAUUUUG [A50C U130A] — higher, -0.352
- GACCAAUCUGCCCUCAGAGCUCGAGAACAUCUUCGGAUGCAGAGGAGGCCGGCUUCGGUGGCGCGAUAGCGCCAACGUCCUCAACCUCCAAUGCAUCCCACCACAUAAUGAUGCCUGAAGAGCCUUGGUUUUUUG [A50C G107A] — higher, -6.09
- GACCAAUCUGCCCUCAGAGCUCGAGAACAUCUUCGGAUGCAGAGGAGGCCGGCUUCGGUGGCGCGAUAGCGCCAACGUCCUCAACCUCCAAUGCAUCCCACCACAUUAUGAUGCCUGAAGAGCCUUGGUUUUUUG [A50C G107U] — higher, -5.95
